The text below walks through data of patent US20220411487A1 (Regeneron, published 2022).

Holding throughout (experiment): cell-based or functional assay
Assay [1] has as its target T1, full length human TMPRSS6 on HEK293 cells (HEK293/hTMPRSS6) (human, UniProt Q8IU80 10-811).
T1 sequence (looked up): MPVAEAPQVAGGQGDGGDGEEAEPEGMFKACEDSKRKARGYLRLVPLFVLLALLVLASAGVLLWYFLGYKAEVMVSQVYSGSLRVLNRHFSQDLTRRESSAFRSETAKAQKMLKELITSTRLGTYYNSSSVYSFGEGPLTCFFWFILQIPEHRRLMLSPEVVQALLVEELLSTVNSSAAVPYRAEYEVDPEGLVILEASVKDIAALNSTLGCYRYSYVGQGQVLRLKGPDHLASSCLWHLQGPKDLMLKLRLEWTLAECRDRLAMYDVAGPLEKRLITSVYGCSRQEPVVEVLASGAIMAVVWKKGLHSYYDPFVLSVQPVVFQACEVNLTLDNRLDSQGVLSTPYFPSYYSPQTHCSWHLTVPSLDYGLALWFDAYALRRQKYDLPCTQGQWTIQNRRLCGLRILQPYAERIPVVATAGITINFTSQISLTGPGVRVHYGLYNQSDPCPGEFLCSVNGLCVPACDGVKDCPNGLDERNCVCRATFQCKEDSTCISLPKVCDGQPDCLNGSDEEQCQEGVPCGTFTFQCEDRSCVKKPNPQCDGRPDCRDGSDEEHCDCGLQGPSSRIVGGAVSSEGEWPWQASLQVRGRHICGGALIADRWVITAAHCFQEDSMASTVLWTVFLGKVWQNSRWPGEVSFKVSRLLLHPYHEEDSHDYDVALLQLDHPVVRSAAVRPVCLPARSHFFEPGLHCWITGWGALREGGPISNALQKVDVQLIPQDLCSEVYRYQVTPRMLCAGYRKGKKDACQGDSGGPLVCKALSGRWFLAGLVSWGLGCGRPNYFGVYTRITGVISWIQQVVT

Assay [2] has as its target T2, full length cynomolgous monkey TMPRSS6 on HEK293 cells (HEK293/mfTMPRSS6) (cynomolgous monkey/Macaca fascicularis, UniProt Q8IU80 10-811 (human entry)).
T2 chain: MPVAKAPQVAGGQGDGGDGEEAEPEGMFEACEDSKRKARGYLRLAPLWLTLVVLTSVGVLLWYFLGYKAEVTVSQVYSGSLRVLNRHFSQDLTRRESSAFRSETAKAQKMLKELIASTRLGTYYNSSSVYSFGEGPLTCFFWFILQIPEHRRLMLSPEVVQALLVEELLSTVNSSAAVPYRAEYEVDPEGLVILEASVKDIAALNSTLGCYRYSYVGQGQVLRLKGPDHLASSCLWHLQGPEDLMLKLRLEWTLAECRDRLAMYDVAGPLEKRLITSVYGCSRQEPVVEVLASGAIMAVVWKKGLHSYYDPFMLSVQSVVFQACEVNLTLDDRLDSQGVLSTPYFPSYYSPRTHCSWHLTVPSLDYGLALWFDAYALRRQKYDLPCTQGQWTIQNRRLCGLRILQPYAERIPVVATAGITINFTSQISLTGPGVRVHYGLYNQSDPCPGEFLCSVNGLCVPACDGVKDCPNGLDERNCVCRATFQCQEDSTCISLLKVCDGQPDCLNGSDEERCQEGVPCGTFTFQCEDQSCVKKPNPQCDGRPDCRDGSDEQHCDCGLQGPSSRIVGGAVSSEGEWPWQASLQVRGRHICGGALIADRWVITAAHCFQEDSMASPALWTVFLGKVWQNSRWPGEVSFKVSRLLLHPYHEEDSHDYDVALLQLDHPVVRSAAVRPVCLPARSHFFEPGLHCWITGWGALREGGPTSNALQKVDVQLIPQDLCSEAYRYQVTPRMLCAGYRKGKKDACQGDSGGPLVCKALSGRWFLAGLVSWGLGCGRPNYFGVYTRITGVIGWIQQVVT

Assay [3] deals with T1, full length human TMPRSS6 on HEK293 …. This is another data set of the same source.
The target of assay [4] is T2, full length cynomolgous monkey TMPRSS6 ….

B1: REGN7969 (antibody, human IgG4 S228P, kappa, V domains shown)
VH: QVQLVESGGGVVQPGRSLRLSCAASGFTFNNYGMHWVRQAPGKGLEWVAIISYDGSNEYYSDSVKGRFTISRDNSKNTLYLQMNSLRAEDTAVYYCARDQDYGGNLFHYWGQGTLVTVSS
VL: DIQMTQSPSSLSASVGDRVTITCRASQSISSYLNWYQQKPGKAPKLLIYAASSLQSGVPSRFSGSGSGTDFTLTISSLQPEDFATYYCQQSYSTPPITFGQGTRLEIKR
notes: fully human; human IgG4 Fc with hinge S108P; also called mAb37746
B1: in assay [1], the “% inhibition, HEK293 bioassay, 30 min pre-incubation 25 C” value came to 87% and the “IC50, HEK293 bioassay, 30 min pre-incubation 25 C” value (“IC50 … 30 min pre-incubation 25 C” for short) turned out to be 1.9 nM. In assay [2], the “% inhibition, HEK293 bioassay, 30 min pre-incubation 25 C” value stood at 87% and the “IC50 … 30 min pre-incubation 25 C” value stood at 8.8 nM. In assay [3], the “% inhibition, HEK293 bioassay, overnight pre-incubation 37 C” value amounted to 88% and the “IC50, HEK293 bioassay, overnight pre-incubation 37 C” value (shortened to “IC50 … overnight pre-incubation 37 C”) was 1.2 nM. Also, in assay [4], the “% inhibition, HEK293 bioassay, overnight pre-incubation 37 C” value was 89% and the “IC50 … overnight pre-incubation 37 C” value is 13 nM.

B2: REGN7971 (antibody, human IgG4 S228P, kappa, V domains shown)
VH: QVQLVESGGGVVQPGRSLRLSCAASGFTFSTYGMHWVRQAPGKGLEWVAIISYDGSNDYYLDSVKGRFTISRDNSKNTLYLQMNNLRAEDTAVYYCAKDQGYGGNLFASWGQGTLVTVSS
VL: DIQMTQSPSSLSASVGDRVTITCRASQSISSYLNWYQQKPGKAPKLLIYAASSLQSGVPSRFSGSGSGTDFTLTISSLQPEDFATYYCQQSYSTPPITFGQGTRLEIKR
notes: fully human; human IgG4 Fc with hinge S108P; also called mAb37763
With B2, the “% inhibition, HEK293 bioassay, 30 min pre-incubation 25 C” value in assay [1] came to 86%; in assay [2], 87%. For the same molecule, the “IC50 … 30 min pre-incubation 25 C” value in assay [1] is 0.97 nM; in assay [2], 3.1 nM. Further, the “% inhibition, HEK293 bioassay, overnight pre-incubation 37 C” value was 90% in assay [3] and 89% in assay [4]. Also, the entries for the “IC50 … overnight pre-incubation 37 C” value in assay [3] and in assay [4] were 1.4 nM and 6 nM, respectively.

B3: REGN7974 (antibody, human IgG4 S228P, kappa, V domains shown)
VH: EVQLVESGGGLVQPGRSLRLSCIASGFNFGDYGMSWVRQAPGKGLEWVGFIRSKAYGGTTEYAASVKGRFTISRDDSKSIAYLQMNSLKTEDAAMYYCSRDYYDILTGYYGDYWGQGTLVTVSS
VL: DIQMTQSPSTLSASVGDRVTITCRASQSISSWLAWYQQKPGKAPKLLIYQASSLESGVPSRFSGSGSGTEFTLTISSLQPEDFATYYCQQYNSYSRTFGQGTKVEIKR
notes: fully human; human IgG4 Fc with hinge S108P; also called mAb41422
Regarding B3, the entries for the “% inhibition, HEK293 bioassay, 30 min pre-incubation 25 C” value in assay [1] and in assay [2] were 86% and 81%, respectively. In addition, the figures for the “IC50 … 30 min pre-incubation 25 C” value in assay [1] and in assay [2] were 5.1 nM and 30 nM, respectively. In addition, the “% inhibition, HEK293 bioassay, overnight pre-incubation 37 C” value was determined as 86% in assay [3] and 31% in assay [4]. The “IC50 … overnight pre-incubation 37 C” value was 2.6 nM in assay [3] and over 10 nM in assay [4].

B4: REGN7977 (antibody, V domains shown)
VH: EVQLVESGGGLVKPGGSLRVSCAASGVTFSNVWMSWVRQVPGKGLEWVGRIKSKTDGGTTDYAAPVKGRFTISKDDSKNTLFLQMNSLKTEDTAVYYCTTETGDFWSGYYPRFQHWGQGTLVTVSS
VL: DIQMTQSPSSLSASVGDRVTITCRASQYISTYLNWYQQKPGKAPSLLIYAASSLQSGVPSRFSGSGSGTDFTLTISSLQPEDFASYSCQQSYSTPPYTFGQGTKLEIKR
notes: fully human; human IgG4 Fc with hinge S108P; also called mAb41465
Take B4: in assay [1], the “% inhibition, HEK293 bioassay, 30 min pre-incubation 25 C” value is 86% and the “IC50 … 30 min pre-incubation 25 C” value was determined as 3.6 nM. In assay [2], the “% inhibition, HEK293 bioassay, 30 min pre-incubation 25 C” value was 87% and the “IC50 … 30 min pre-incubation 25 C” value was found to be 8.1 nM. In assay [3], the “% inhibition, HEK293 bioassay, overnight pre-incubation 37 C” value came out at 87% and the “IC50 … overnight pre-incubation 37 C” value came out at 1.7 nM. Also, in assay [4], the “% inhibition, HEK293 bioassay, overnight pre-incubation 37 C” value was determined as 81% and the “IC50 … overnight pre-incubation 37 C” value was over 10 nM.

B5: REGN8023 (antibody, human IgG4 S228P, kappa, V domains shown)
VH: EVQLVESGGGLVKPGGSLRISCAASGFIFVDYAMHWVRQAPGKGLEWVSGISWNSGSIGYADSVKGRFTISRDNAKKSLYLQMSGLRPEDTALYYCVKSGFYYVRSYFDNWGQGTLVTVSS
VL: DIVMTQSPLSLPVTPGEPASISCRSSQSLLDSDDGNTYLDWYLRKPGQSPQLLIYTLSYRASGVPDRFSGSGSGTDFTLKISRVEADDVGVYYCMQRIEFPLTFGGGTKVEIKR
notes: fully human; human IgG4 Fc with hinge S108P; also called mAb37699
For the molecule B5, in assay [1], the “% inhibition, HEK293 bioassay, 30 min pre-incubation 25 C” value is 90% and the “IC50 … 30 min pre-incubation 25 C” value came out at 0.36 nM. In assay [2], the “% inhibition, HEK293 bioassay, 30 min pre-incubation 25 C” value was 94% and the “IC50 … 30 min pre-incubation 25 C” value was determined as 0.66 nM. Also, in assay [3], the “% inhibition, HEK293 bioassay, overnight pre-incubation 37 C” value is 90% and the “IC50 … overnight pre-incubation 37 C” value was 1.1 nM. In assay [4], the “% inhibition, HEK293 bioassay, overnight pre-incubation 37 C” value is 91% and the “IC50 … overnight pre-incubation 37 C” value worked out at 2.8 nM.

B6: REGN7999 (antibody, human IgG4 S228P, kappa, V domains shown)
VH: EVQLVESGGGLVQPGGSLRLSCAASGFTFSSYAMTWVRQAPGKGLEWVSAISGSDTSTYYADSVKGRFTISRDNSKNTLFLQMNSLRAEDTAVYYCAKHQDYDFSYYYSAMDVWGQGTTVTVSS
VL: DIQMTQSPSSLSASVGDRVIITCRASQDFNSWLAWYQQKPGKAPKLLIYAASSLQSGVPSRFSGSGSGTDFTLTISSLQPEDFATYYCQQTDSFPFTFGPGTKVDIKR
notes: fully human; human IgG4 Fc with hinge S108P; also called mAb41450
Take B6: in assay [1], the “% inhibition, HEK293 bioassay, 30 min pre-incubation 25 C” value was 86% and the “IC50 … 30 min pre-incubation 25 C” value was determined as 3 nM. Further, in assay [2], the “% inhibition, HEK293 bioassay, 30 min pre-incubation 25 C” value is 90% and the “IC50 … 30 min pre-incubation 25 C” value is 6.5 nM. For the same molecule, in assay [3], the “% inhibition, HEK293 bioassay, overnight pre-incubation 37 C” value is 89% and the “IC50 … overnight pre-incubation 37 C” value came to 2.1 nM. Besides, in assay [4], the “% inhibition, HEK293 bioassay, overnight pre-incubation 37 C” value is 91% and the “IC50 … overnight pre-incubation 37 C” value was 21 nM.
